Like-named read-outs stand apart in the source and are kept apart here.
Assays:
[Lys]plasminogen (human) [1] = steady-state kinetics of Pg activation
[Lys]plasminogen (human) [2] = steady-state kinetics of Pg activation; remark: listed apart in the source
[3] = target: [5F]FFR-[Lys]Pg ([Lys]plasminogen inactivated with ATA-FFR-CH2Cl and labeled with 5-(iodoacetamido)fluorescein) (human); experiment: other fluorescence titration
[4] = target: [5F]FFR-[Lys]Pg ([Lys]plasminogen inactivated with ATA-FFR-CH2Cl and labeled with 5-(iodoacetamido)fluorescein) (human); experiment: other fluorescence titration; remark: listed apart in the source

[Lys]plasminogen (human), sequence (P00747 whole entry): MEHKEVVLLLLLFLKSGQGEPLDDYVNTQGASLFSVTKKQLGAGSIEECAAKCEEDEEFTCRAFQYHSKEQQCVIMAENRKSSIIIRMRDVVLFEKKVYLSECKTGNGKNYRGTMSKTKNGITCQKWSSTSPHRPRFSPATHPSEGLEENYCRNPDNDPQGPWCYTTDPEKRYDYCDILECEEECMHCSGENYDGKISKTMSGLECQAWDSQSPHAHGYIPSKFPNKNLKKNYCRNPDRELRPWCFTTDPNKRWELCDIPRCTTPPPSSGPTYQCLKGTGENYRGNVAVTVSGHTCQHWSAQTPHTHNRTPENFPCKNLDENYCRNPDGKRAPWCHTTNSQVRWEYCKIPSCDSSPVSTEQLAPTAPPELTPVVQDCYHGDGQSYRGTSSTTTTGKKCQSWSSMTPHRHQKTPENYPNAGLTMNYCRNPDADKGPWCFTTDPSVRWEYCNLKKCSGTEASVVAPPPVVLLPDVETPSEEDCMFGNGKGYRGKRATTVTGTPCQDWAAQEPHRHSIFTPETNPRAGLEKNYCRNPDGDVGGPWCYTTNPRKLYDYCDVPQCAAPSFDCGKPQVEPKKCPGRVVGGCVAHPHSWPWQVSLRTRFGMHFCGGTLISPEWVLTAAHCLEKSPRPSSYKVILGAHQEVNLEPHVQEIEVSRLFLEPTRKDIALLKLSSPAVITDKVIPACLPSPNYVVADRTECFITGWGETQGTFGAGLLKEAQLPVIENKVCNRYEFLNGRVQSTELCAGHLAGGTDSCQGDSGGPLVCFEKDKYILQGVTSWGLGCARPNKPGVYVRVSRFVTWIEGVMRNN
[5F]FFR-[Lys]Pg ([Lys]plasminogen inactivated with ATA-FFR-CH2Cl and labeled with 5-(iodoacetamido)fluorescein) (human), sequence (P00747 whole entry): as above

## Native streptokinase (from UniProt P00779 27-440) (natural protein)
[Lys]plasminogen (human) [1]
  Kd: 1.6 nM

## SKΔ(R253-L260) (from UniProt P00779 27-440) (natural protein)
[Lys]plasminogen (human) [2]
  Kd: 78 nM

## SKΔ(R253-L260)ΔK414-His6 (TEVp-cleaved His6-(TEVp cleavage site)-SKΔ(R253-L260)ΔK414-His6) (from UniProt P00779 27-440) (natural protein)
[3]
  Kd: 820 nM
[Lys]plasminogen (human) [1]
  Kd: 28 nM
[4]
  Kd: 470 nM

## recombinant wild-type streptokinase (from UniProt P00779 27-440) (natural protein)
[Lys]plasminogen (human) [2]
  Kd: 33 nM
[Lys]plasminogen (human) [1]
  Kd: 1.6 nM

## wtSK-His6 (TEVp-cleaved His6-wtSK-His6) (from UniProt P00779 27-440) (natural protein)
[3]
  Kd: 290 nM
[Lys]plasminogen (human) [2]
  Kd: 32 nM
[4]
  Kd: 240 nM
